Source: paper PMC9272907, “Penpulimab, an Fc-Engineered IgG1 Anti-PD-1 Antibody, With Improved Efficacy and Low Incidence of Immune-Related Adverse Events” (Frontiers in Immunology, 2022)

Columns and labels:
[1] = molecular target: FcγRIa (human) (UniProt P12314); experiment: BLI; ForteBio Octet QKe; FcγRIa immobilised on HIS1K sensor; antibody 50 nM to 3.12 nM in solution; 120 s binding and 120 s dissociation
[2] = molecular target: FcγRIIa_H131 (human) (UniProt P12318); experiment: BLI; ForteBio Octet QKe; FcγRIIa_R131 or FcγRIIa_H131 immobilised on NTA sensor; antibody 200 nM to 12.5 nM in solution; 60 s binding and 60 s dissociation
[3] = molecular target: FcγRIIa_R131 (human); experiment: as above
[4] = molecular target: FcγRIIIa_V158 (human); experiment: BLI; ForteBio Octet QKe; FcγRIIIa_F158 or FcγRIIIa_V158 (5 μg/mL) immobilised on HIS1K sensor; antibody 500 nM to 31.25 nM in solution; 60 s binding and 60 s dissociation
[5] = molecular target: T1, human PD-1 extracellular domain fused to human IgG Fc domain (PD-1-hFc) (Homo sapiens, UniProt Q15116); experiment: SPR; Biacore T200; PD-1-hFc immobilised on CM5 chip; antibody 50 nM to 1.56 nM flowed; 180 s binding, 420 s dissociation; conditions: both partners purified
T1 construct: human programmed cell death protein 1 (PD-1), extracellular domain

[6] = molecular target: FcγRIIIa_F158 (human) (UniProt P08637); experiment: BLI; ForteBio Octet QKe; FcγRIIIa_F158 or FcγRIIIa_V158 (5 μg/mL) immobilised on HIS1K sensor; antibody 500 nM to 31.25 nM in solution; 60 s binding and 60 s dissociation
Chain of FcγRIIIa_F158 (human) (P08637 17-254): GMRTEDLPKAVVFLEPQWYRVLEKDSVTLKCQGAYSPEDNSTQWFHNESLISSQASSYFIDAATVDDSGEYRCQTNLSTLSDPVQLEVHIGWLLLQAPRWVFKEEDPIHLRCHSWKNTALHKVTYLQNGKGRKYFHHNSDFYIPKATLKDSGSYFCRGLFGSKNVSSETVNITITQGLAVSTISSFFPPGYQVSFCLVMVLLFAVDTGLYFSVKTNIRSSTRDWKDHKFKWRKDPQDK

Chain of FcγRIIa_H131 (human) (P12318 34-317): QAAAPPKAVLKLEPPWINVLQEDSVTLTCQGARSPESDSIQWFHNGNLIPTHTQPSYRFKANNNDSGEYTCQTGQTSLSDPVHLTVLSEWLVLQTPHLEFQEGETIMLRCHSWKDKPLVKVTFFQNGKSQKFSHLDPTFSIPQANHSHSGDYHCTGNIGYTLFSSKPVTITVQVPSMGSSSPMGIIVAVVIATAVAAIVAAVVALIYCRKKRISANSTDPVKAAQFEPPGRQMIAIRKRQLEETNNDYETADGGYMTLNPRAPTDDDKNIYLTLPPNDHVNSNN
T1 sequence (Q15116 25-170): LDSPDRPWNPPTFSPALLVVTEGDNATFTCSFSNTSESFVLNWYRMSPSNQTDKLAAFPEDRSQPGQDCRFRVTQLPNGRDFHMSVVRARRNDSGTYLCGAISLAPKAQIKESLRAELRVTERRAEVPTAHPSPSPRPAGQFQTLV
Chain of FcγRIa (human) (P12314 16-374): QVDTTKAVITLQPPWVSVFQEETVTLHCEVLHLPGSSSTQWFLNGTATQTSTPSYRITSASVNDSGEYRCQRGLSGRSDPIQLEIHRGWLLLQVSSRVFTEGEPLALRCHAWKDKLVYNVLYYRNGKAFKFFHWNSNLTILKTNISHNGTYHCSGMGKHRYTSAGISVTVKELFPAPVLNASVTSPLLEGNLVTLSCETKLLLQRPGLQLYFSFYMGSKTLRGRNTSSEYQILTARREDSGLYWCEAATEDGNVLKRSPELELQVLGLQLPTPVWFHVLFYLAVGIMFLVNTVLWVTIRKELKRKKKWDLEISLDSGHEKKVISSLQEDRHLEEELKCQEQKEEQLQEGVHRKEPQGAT

Binder | Kd [1] | koff [1] | kon [1] | Kd [2] | koff [2] | kon [2] | Kd [3] | koff [3] | kon [3] | Kd [4] | koff [4] | kon [4] | Kd [5] | koff [5] | kon [5] | Kd [6] | koff [6] | kon [6]
AK105 (hG4), an IgG4 backbone version of penpulimab (antibody, V domains shown) VH: EVQLVESGGGLVQPGGSLRLSCAASGFAFSSYDMSWVRQAPGKGLDWVATISGGGRYTYYPDSVKGRFTISRDNSKNNLYLQMNSLRAEDTALYYCANRYGEAWFAYWGQGTLVTVSS VL: DIQMTQSPSSMSASVGDRVTFTCRASQDINTYLSWFQQKPGKSPKTLIYRANRLVSGVPSRFSGSGSGQDYTLTISSLQPEDMATYYCLQYDEFPLTFGAGTKLELK | 8.25 nM | 0.00478 s⁻¹ | 579000 M⁻¹ s⁻¹ | 50.7 nM | 0.013 s⁻¹ | 257000 M⁻¹ s⁻¹ | 31.3 nM | 0.011 s⁻¹ | 350000 M⁻¹ s⁻¹ | 23500 nM | 0.0837 s⁻¹ | 3560 M⁻¹ s⁻¹ | – | – | – | – | – | –
Penpulimab (antibody, V domains shown, heavy chain variable domain of penpulimab; light chain of penpulimab; Human IgG1 anti-PD-1 antibody with Fc mutations; probably a Fab; also called AK105) VH: EVQLVESGGGLVQPGGSLRLSCAASGFAFSSYDMSWVRQAPGKGLDWVATISGGGRYTYYPDSVKGRFTISRDNSKNNLYLQMNSLRAEDTALYYCANRYGEAWFAYWGQGTLVTVSS VL: DIQMTQSPSSMSASVGDRVTFTCRASQDINTYLSWFQQKPGKSPKTLIYRANRLVSGVPSRFSGSGSGQDYTLTISSLQPEDMATYYCLQYDEFPLTFGAGTKLELK | – | – | – | – | – | – | 232 nM | 0.0938 s⁻¹ | 404000 M⁻¹ s⁻¹ | – | – | – | 0.588 nM | 9.51e-05 s⁻¹ | 162000 M⁻¹ s⁻¹ | – | – | –
AK105 (hG1WT), a version of penpulimab with wildtype IgG1 backbone (antibody, V domains shown) VH: EVQLVESGGGLVQPGGSLRLSCAASGFAFSSYDMSWVRQAPGKGLDWVATISGGGRYTYYPDSVKGRFTISRDNSKNNLYLQMNSLRAEDTALYYCANRYGEAWFAYWGQGTLVTVSS VL: DIQMTQSPSSMSASVGDRVTFTCRASQDINTYLSWFQQKPGKSPKTLIYRANRLVSGVPSRFSGSGSGQDYTLTISSLQPEDMATYYCLQYDEFPLTFGAGTKLELK | 3.35 nM | 0.00213 s⁻¹ | 636000 M⁻¹ s⁻¹ | 57.4 nM | 0.0267 s⁻¹ | 465000 M⁻¹ s⁻¹ | 34.6 nM | 0.0228 s⁻¹ | 660000 M⁻¹ s⁻¹ | 197 nM | 0.0329 s⁻¹ | 167000 M⁻¹ s⁻¹ | – | – | – | 238 nM | 0.04 s⁻¹ | 168000 M⁻¹ s⁻¹
